The target in the experiment is dual chain avidin dcAvd(I117C5→4S16C,V115H6→5). The experiment in a line: non-reducing SDS-PAGE; denatured in SDS-PAGE sample buffer without β-mercaptoethanol at 95°C for ten minutes, 15% gel, Coomassie staining.

Broadly, the stoichiometry N is the number of molecules, sites or subunits per partner or assembly. In turn, “dual chain avidin dcAvd(I117C5→4S16C,V115H6→5)” registered a stoichiometry N of 2.
